Measurements: patent publication US5326856A, “Bifunctional isothiocyanate derived thiocarbonyls as ligands for metal binding” (Cytogen Corporation, priority 1992, dated 1994)
Ends that are not written are not given here. chelating agent A = 3,5-di-(1-trimethylammoniumacetyl)-4-thiosemicarbazidobenzoic acid, dichloride salt

Key:
activated platelets = assay: Aggregometer assay; assay type: cell-based
clot [1] = assay: Gamma camera thrombus imaging in rabbits; assay type: in vivo, New Zealand White rabbits; settings: FIG. 8
Protocol: (§1) The specificity of uptake of Tc-99m labeled peptide […]-chelating agent A conjugate into rabbit thrombi was determined by directly comparing tissue uptake and images obtained in animals with an induced thrombus to those receiving a sham operation without induced thrombus.
Two groups of 3 rabbits were used. All animals were subjected to surgery to expose the superficial jugular vein as described in detail below. In the first group of animals, the jugular veins were clamped off and a silk thread was inserted into the jugular veins. These veins also received an injection of 10 units of bovine thrombin in 0.1 ml isotonic saline directly into the vein. […]
The peptide-chelating agent conjugate prepared as in Section 9, supra, was radiolabeled with Tc-99m as follows: Tc-99m was eluted from a molybdenum generator and adjusted to 40 mCi/ml with isotonic saline. […] After this incubation period the material was drawn into an appropriately labelled 5 ml syringe and a sample was analyzed by instant thin layer chromatography (ITLC) to determine radiochemical purity as described in Section 9, supra. This material was acceptable for injection into rabbits only if the radiochemical purity was ≥95% and the amount of radioactivity available for injection was within 20% of that required by this protocol (e.g., 4.8-7.3 mCi). […]

clot [2] = assay: Biodistribution by dissection in rabbits with induced thrombus; assay type: in vivo, New Zealand White rabbits; settings: for 99M Tc / % ID/G (percent of injected dose per gram of tissue) / TISS:BLD / TISS:MUSC: 4 h after injection
Protocol: as §1
Two groups of 3 rabbits were used. All animals were subjected to surgery to expose the superficial jugular vein as described in detail below. In the first group of animals, the jugular veins were clamped off and a silk thread was inserted into the jugular veins. These veins also received an injection of 10 units of bovine thrombin in 0.1 ml isotonic saline directly into the vein. The second (sham control) group of animals was subjected to the same surgical procedures as the experimental group except that no silk was inserted into the veins of these animals and the veins received an injection of 0.1 ml isotonic saline only. Due to logistical difficulties in handling six animals at one time, the experiment was conducted in three parts, each part consisting of one sham and one thrombus-induced animal done in parallel on each of 3 days. Specific pathogen-free New Zealand White rabbits (2-2.6 kg) were used.
The model system of Collen et al. (1983, J. Clin. Invest. 71:368-376) was used (with minor modifications described below) to induce experimental thrombi in rabbits. The animals were anesthetized by intramuscular injection of 40 mg/kg ketamine-HC1 and 4 mg/kg acepromazine maleate. Just prior to surgery, the animals received 10 mg/kg sodium pentobarbital, which was also administered as needed during the course of the surgery. The neck area was shaved and swabbed with disinfectant. The jugular vein was exposed by making about a 5 cm paramedial incision, the vein was freed from tissues over about a 4 cm distance (up to the main bifurcation of the facial vein) and the side branches of the jugular were ligated. A 1-inch segment was clamped off with hemostats and, in the experimental (group 1) animals, a silk thread was placed longitudinally inside the vein and was tied off at each end. No suture was placed in the veins of sham control (group 2) animals. Ten (10) units of bovine thrombin in 0.1 ml of isotonic saline (or saline alone in sham control animals) was injected into the clamped vein segment using a 27 gauge needle. Thirty minutes later, the animals were given an intravenous injection (in the contralateral marginal ear vein) of a mixture of 2-7 μCi of Tc-99m labelled peptide-chelating agent conjugate.
The peptide-chelating agent conjugate prepared as in Section 9, supra, was radiolabeled with Tc-99m as follows: Tc-99m was eluted from a molybdenum generator and adjusted to 40 mCi/ml with isotonic saline. Fifty (50) mCi of this preparation was transferred to a Glucoscan vial (Dupont, Billerica, MA) and mixed. Six (6) mCi of Tc-99m/glucoscan mixture was then added to a vial containing 50 μg of the peptide-chelating agent conjugate and incubated for 1 h at room temperature. After this incubation period the material was drawn into an appropriately labelled 5 ml syringe and a sample was analyzed by instant thin layer chromatography (ITLC) to determine radiochemical purity as described in Section 9, supra. This material was acceptable for injection into rabbits only if the radiochemical purity was ≥95% and the amount of radioactivity available for injection was within 20% of that required by this protocol (e.g., 4.8-7.3 mCi).
All animals were dissected 4 h (240 min) after injection. A 3 ml blood sample was drawn, after which the animals were euthanized with an i.v. injection of T-61 euthanasia solution (American Hoechst, Sommerville, N.J.). The vein segment was surgically removed and the thrombus therein (if any) was isolated from the vein. A segment of the contralateral vein was also removed and a sample of muscle was obtained from an area of the neck distal to the surgical field. […]

With “Chelating Agent A-NH-SYRGDVRGDF: chelating agent A coupled with SYRGDVRGDF-NH2 peptide ({chelating agent A}-SYRGDVRGDF-NH2)” the IC50 (activated platelets) was 19.3 µM and the “clot-binding potency relative to the native peptide” value (activated platelets; relative to native peptide) was “full or even enhanced clot-binding potency”.

SYRGDVRGDF [reference compound] showed an IC50 (activated platelets) of 28.8 µM.

“Tc-99m-labeled SYRGDVRGDF-chelating agent A conjugate: peptide-chelating agent conjugate prepared as in Section 9, radiolabeled with Tc-99m (SYRGDVRGDF-NH2; not fully specified (N-terminus); also: chelating agent A conjugate, site not given here, Tc-99m labelled (metal complex))” was tested, and the “localization to clot in gamma camera imaging” value (clot [1]; 2 hours and 4 hours) was “localization of Tc-99m-labeled SYRGDVRGDF-chelating agent A conjugate to a clot”, the “blood pool accumulation, area of the head” value (clot [1]; gamma camera image) was “blood pool accumulation of peptide-chelating agent A, which is non-specific” and the “99M Tc” value (clot [2]; Blood) was 318229. For the same substance, the “% ID/G (percent of injected dose per gram of tissue)” value (clot [2]; Blood) was 0.0399 % ID/G, the “99M Tc” value (clot [2]; Clot (Target)) was 94319 and the “% ID/G (percent of injected dose per gram of tissue)” value (clot [2]; Clot (Target)) was 0.3312 % ID/G. The “TISS:BLD” value (clot [2]; Clot (Target)) was 28.30, the “TISS:MUSC” value (clot [2]; Clot (Target)) was 27.83 and the “99M Tc” value (clot [2]; Muscle) was 22369. For the same substance, the “% ID/G (percent of injected dose per gram of tissue)” value (clot [2]; Muscle) was 0.0119 % ID/G, the “99M Tc” value (clot [2]; Vessel) was 95629 and the “% ID/G (percent of injected dose per gram of tissue)” value (clot [2]; Vessel) was 0.0870 % ID/G. For the same substance, the “TISS:BLD” value (clot [2]; Vessel) was 2.18, the “TISS:MUSC” value (clot [2]; Vessel) was 7.28 and the “clot % ID/G relative to blood” value (clot [2]; clot vs blood) was 8 fold. For the same substance, the “clot % ID/G relative to the blood vessel” value (clot [2]; clot vs blood vessel) was 4 fold and the “% ID/G for the clot” value (clot [2]; clot, percent of injected dose per gram of tissue) was 0.33%.
